Target: the molecule itself
Assay: cryo-EM structure

Row | Protein | stoichiometry N
1 | P116 ectodomain (residues 30-957), C-terminally shortened and HIS-tagged (domain or fragment, Mycoplasma pneumoniae, UniProt P75556 30-957, looked up) NKTHQVEHESEQSDFQDIRFGLNSVKLPKAQPAAATRITVENGTDKLVNYKSSPQQLFLAKNALKDKLQGEFDKFLSDAKAFPALTADLQEWVDQQLFNPNQSFFDLSAPRSNFTLSSDKKASLDFIFRFTNFTESVQLLKLPEGVSVVVDSKQSFDYYVNASAQKLLVLPLSLPDYTLGLNYMFDHITLNGKVVNKFSFNPFKTNLNLAFSNVYNGVDVFEAQKNLVGKGKYLNTHVKAEDVKKDVNANIKNQFDIAKIIAELMGKALKEFGNQQEGQPLSFLKVMDKVKEDFEKLFNLVRPGLGKFVKDLIQSSSQAENKITVYKLIFDNKKTILNLLKELSIPELNSSLGLVDVLFDGITDSDGLYERLQSFKDLIVPAVKTNEKTAALSPLIEELLTQKDTYVFDLIQKHKGILTNLLKNFLADFQKSTPFMADQVAIFTELFDNEGAFDLFGEADFVDKIAELFLTKRTVKNGEKIETKDSLLVTSLKSLLGEKVAALGDLLDSYIFKNELLNRSVEVAKAEAKDTKGATDYKKEQAKALKKLFKHIGENTLSKTNLDKITLKEVKNTENVELEETETTLKVKKLDVEYKVELGNFEIKNGLIKAMLEFLPDTKDLETTLDKLLFKGESYKAMKDKYIKEGFPGYGWAKGVVPGAFESIENTFKSAIDKTKSIRDLFGDMLFGNDLSSVKETDSFITLGGSFDIKYGGENLNVLPAYYSLINSEIGYQIIGVDTTIDATKVKVELKNKEYKGKSPAINGQVKLSQSFFNVWTNMFDSITKQIFQKKYEFKDNIQVFARNEDNTSRLELDISDPEQRVIPFAFVDGFGIQLKAVDKNITKEAGNTEPKSPVIQLYEALNKEKDQKQQSKQSPKQLDTKTQLGYLLKLGDNWSKDDYKSLIDDTIINNNYLEASFNSKITVDRLG | 2
2 | ΔN-P116 (residues 246-818), truncated N-terminal domain and F-loop (domain or fragment, Mycoplasma pneumoniae, UniProt P75556 246-818, looked up) GVDVFEAQKNLVGKGKYLNTHVKAEDVKKDVNANIKNQFDIAKIIAELMGKALKEFGNQQEGQPLSFLKVMDKVKEDFEKLFNLVRPGLGKFVKDLIQSSSQAENKITVYKLIFDNKKTILNLLKELSIPELNSSLGLVDVLFDGITDSDGLYERLQSFKDLIVPAVKTNEKTAALSPLIEELLTQKDTYVFDLIQKHKGILTNLLKNFLADFQKSTPFMADQVAIFTELFDNEGAFDLFGEADFVDKIAELFLTKRTVKNGEKIETKDSLLVTSLKSLLGEKVAALGDLLDSYIFKNELLNRSVEVAKAEAKDTKGATDYKKEQAKALKKLFKHIGENTLSKTNLDKITLKEVKNTENVELEETETTLKVKKLDVEYKVELGNFEIKNGLIKAMLEFLPDTKDLETTLDKLLFKGESYKAMKDKYIKEGFPGYGWAKGVVPGAFESIENTFKSAIDKTKSIRDLFGDMLFGNDLSSVKETDSFITLGGSFDIKYGGENLNVLPAYYSLINSEIGYQIIGVDTTIDATKVKVELKNKEYKGKSPAINGQVKLSQSFFNVWTNMFDSITKQIFQ | 2
